In patent US20200095615A1:

Columns and labels:
[1] = system: T1, wild type Penicillium oxalicum glucoamylase
T1 sequence: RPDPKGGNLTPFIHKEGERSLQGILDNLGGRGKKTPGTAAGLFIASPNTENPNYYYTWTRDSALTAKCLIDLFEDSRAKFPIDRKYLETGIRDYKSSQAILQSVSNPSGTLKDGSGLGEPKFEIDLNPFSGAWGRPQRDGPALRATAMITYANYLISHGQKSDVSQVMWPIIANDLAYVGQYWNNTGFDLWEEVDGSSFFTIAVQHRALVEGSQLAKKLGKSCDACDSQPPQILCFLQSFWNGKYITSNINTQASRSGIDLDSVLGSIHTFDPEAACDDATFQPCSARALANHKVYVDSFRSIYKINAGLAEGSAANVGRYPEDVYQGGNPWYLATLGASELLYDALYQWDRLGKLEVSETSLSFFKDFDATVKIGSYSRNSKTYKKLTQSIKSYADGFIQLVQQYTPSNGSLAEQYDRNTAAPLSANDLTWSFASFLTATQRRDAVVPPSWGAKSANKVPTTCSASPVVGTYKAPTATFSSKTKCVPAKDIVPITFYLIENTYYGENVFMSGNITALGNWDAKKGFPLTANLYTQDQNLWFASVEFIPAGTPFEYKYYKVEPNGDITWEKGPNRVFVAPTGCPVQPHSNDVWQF

[2] = target: wild type Penicillium oxalicum glucoamylase (Penicillium oxalicum); test: cell-based or functional assay
[3] = target: Glucoamylase PE001: variant of the Penicillium oxalicum glucoamylase having a K79V substitution (Penicillium oxalicum); test: cell-based or functional assay

Substance	cleaved glucoamylase (ca. 60 kDa), SDS-PAGE after protease treatment overnight at 4 °C [1] [%]	cleaved glucoamylase (ca. 60 kDa), SDS-PAGE after protease treatment overnight at 32 °C [1] [%]	intact glucoamylase (ca. 70 kDa), SDS-PAGE after protease treatment overnight at 4 °C [2] [%]	intact glucoamylase (ca. 70 kDa), SDS-PAGE after protease treatment overnight at 32 °C [2] [%]	intact glucoamylase (ca. 70 kDa), SDS-PAGE after protease treatment overnight at 4 °C [3] [%]	intact glucoamylase (ca. 70 kDa), SDS-PAGE after protease treatment overnight at 32 °C [3] [%]
aorsin	60	90				
aspergillopepsin I (enzyme)			100	90	100	100
aorsin (enzyme)			40	10	100	100
aspergillopepsin I		10				
